Source: US20110135636A1 (SYMPHOGEN A S, published 2011)

What was measured:
[1] = target: T1, recombinant human EGFR extracellular domain with 6xHis (human, UniProt P00533 25-645); assay: SPR competition, competitor Ab-5
T1 construct: In-house produced; also called 6xHis EGFR ECD; soluble human EGFR ECD; not shown: 6xHis tag
Procedure: (§1) SPR analysis was performed on a Biacore 3000 machine containing four flow cells. A CM5 Biacore chip was conjugated with 10,000 Resonance units (Ru) polyclonal anti-His antibody to flow cells 1-4 according to the manufacturer's instructions. […] Immediately after antigen injection the maximal binding of the Anti-EGFR mAb without competition was established in each flow cell during a reference run. Briefly 5 μl antibody at a concentration of 40 μg/ml was injected over all flow cells with captured EGFR followed by stripping of the antibody/antigen complex with a low pH acid wash (10 sec. contact time with 10 mM Glycine-HCl, pH2). After the determination of Anti-EGFR antibody maximal binding to each flow cell, a competition run was performed during the same Biacore cycle. Flow cells were first saturated with EGFR ECD antigen followed by injection of different reference antibodies or Anti-EGFR antibodies into separate flow cells using the same antigen saturating conditions as outlined above. This step was immediately followed by a second injection of Anti-EGFR antibody over the flow cell saturated with EGFR antigen and competition antibody to minimize the dissociation of either antigen or blocking antibody. Then the antibody/antigen complexes were stripped off with a low pH acid wash (10 sec. contact time with 10 mM Glycine-HCl, pH 2) and the whole cycle beginning with the reference run was repeated with a new Anti-EGFR antibody. The degree of inhibition of tested Anti-EGFR antibodies were determined by comparing the Ru max value of the individual Anti-EGFR antibody before and after competition by introduction of report points recorded two seconds before and after injection of each sample.

[2] = target: T1, recombinant human EGFR extracellular …; assay: SPR competition, competitor 1344
Procedure: as §1

[3] = target: T1, recombinant human EGFR extracellular …; assay: SPR competition, competitor 1261
Procedure: as §1

[4] = target: T1, recombinant human EGFR extracellular …; assay: SPR competition, competitor Ab-3
Procedure: as §1

[5] = target: T1, recombinant human EGFR extracellular …; assay: SPR competition, competitor Erbitux
Procedure: as §1

[6] = target: T1, recombinant human EGFR extracellular …; assay: SPR competition, competitor Erbitux; remark: listed apart in the source
Procedure: as §1

[7] = target: T1, recombinant human EGFR extracellular …; assay: SPR competition, competitor 1257
Procedure: as §1

[8] = target: T1, recombinant human EGFR extracellular …; assay: SPR competition, competitor 1030corr
Procedure: as §1

[9] = target: T1, recombinant human EGFR extracellular …; assay: SPR competition, competitor 1320
Procedure: as §1

[10] = target: T1, recombinant human EGFR extracellular …; assay: SPR competition, competitor 1024
Procedure: as §1

[11] = target: T1, recombinant human EGFR extracellular …; assay: SPR competition, competitor 1260
Procedure: as §1

[12] = target: T1, recombinant human EGFR extracellular …; assay: SPR competition, competitor 1208
Procedure: as §1

[13] = target: T1, recombinant human EGFR extracellular …; assay: SPR competition, competitor Ab-11
Procedure: as §1

[14] = target: T1, recombinant human EGFR extracellular …; assay: SPR competition, competitor ICR10
Procedure: as §1

[15] = target: T1, recombinant human EGFR extracellular …; assay: SPR competition, competitor Ab-1
Procedure: as §1

[16] = target: T1, recombinant human EGFR extracellular …; assay: SPR competition, competitor Vectibix
Procedure: as §1

[17] = target: T1, recombinant human EGFR extracellular …; assay: SPR competition, competitor Vectibix; remark: listed apart in the source
Procedure: as §1

[18] = target: T1, recombinant human EGFR extracellular …; assay: SPR competition, competitor 1347
Procedure: as §1

[19] = target: T1, recombinant human EGFR extracellular …; assay: SPR competition, competitor 1284
Procedure: as §1

[20] = target: T1, recombinant human EGFR extracellular …; assay: SPR competition, competitor Ab-10
Procedure: as §1

[21] = target: T1, recombinant human EGFR extracellular …; assay: SPR competition, competitor 1254
Procedure: as §1

[22] = target: T1, recombinant human EGFR extracellular …; assay: SPR competition, competitor 992 corr
Procedure: as §1

[23] = target: T1, recombinant human EGFR extracellular …; assay: SPR competition, competitor 1277
Procedure: as §1

| % inhibition [1] [%] | % inhibition [2] [%] | % inhibition [3] [%] | % inhibition [4] [%] | % inhibition [5] [%] | % inhibition [6] [%] | % inhibition [7] [%] | % inhibition [8] [%] | % inhibition [9] [%] | % inhibition [10] [%] | % inhibition [11] [%] | % inhibition [12] [%] | % inhibition [13] [%] | % inhibition [14] [%] | % inhibition [15] [%] | % inhibition [16] [%] | % inhibition [17] [%] | % inhibition [18] [%] | % inhibition [19] [%] | % inhibition [20] [%] | Binder | other results |
| --- | --- | --- | --- | --- | --- | --- | --- | --- | --- | --- | --- | --- | --- | --- | --- | --- | --- | --- | --- | --- | --- |
| -3 | 65 | 95 | 54 | -2 | -2 | 58 | -6 | -18 | -24 | 75 | -24 | 94 | 24 | -4 | -21 | -5 | 4 | -8 | -6 | antibody 1261 (antibody, human IgG1, kappa, V domains shown, Chimeric IgG1 kappa) VH: EVQLVESGGGLVKPGGSLKLSCAVSGFTFSSYVMSWVRQTPEKRLEWVATITSGGRNIYYLDSVKGRFTISRDNAKNTLYLQMSSLRSEDTAMYYCARHEDYRYDGYYAMDYWGQGTSVTVSS VL: QIVLTQSPAIMSASPGEKVTITCSASSSVSYMHWFQQKPGTSPKLWIYSTSNLASGVPARFSGSGSGTSYSLTISRMEAEDAATYYCQQRSSYPYTFGGGTKLELKR | % inhibition [21]: -12%; % inhibition [22]: 14%; % inhibition [23]: -19% |
| -3 | 83 | 71 | 25 | -4 | -4 | 83 | 31 | 8 | 3 | 87 | 3 | 86 | 87 | -2 | 8 | -5 | 15 | 81 | 0 | antibody 1344 (antibody, human IgG1, kappa, V domains shown, Chimeric IgG1 kappa) VH: QVQLKESGPGLVAPSQSLSITCTVSGFSLTIYGVHWVRQPPGKGLEWLGVIWAGGNTNYNSALMSRLSISKDNSKSQVFLKMNSLQTDDTAMYFCARGYGYNLDYWGQGTTLTVSS VL: DIQMTQTTSSLSASLGDRVTISCSASQGISNYLNWYQQKPDGTVKLLIYYTSSLHSGVPSRFSGSGSGTDYSLTISNLEPEDIATYYCQQYSKLPYTFGGGTKLEIKR | % inhibition [21]: 10%; % inhibition [22]: 9%; % inhibition [23]: 10% |
| -4 | 67 | -9 | 11 | -6 | -6 | 27 | -2 | 2 | 3 | 86 | 1 | 85 | 15 | -5 | -7 | -8 | 65 | 76 | -3 | antibody 1308 (antibody, human IgG1, kappa, V domains shown, Chimeric IgG1 kappa) VH: EVQLQQSGAELVRPGSSVKISCKASGYAFSSYWMNWVRQRPGQGLEWIGQIYPGDGDTNYNGKFKGRATLTANKSSSTAYMQLSSLTSEDSAVYFCARRASSLYDVYPYYFDYWGQGTTLTVSS VL: DIQMTQTTSSLSASLGDRVTISCRASQDISNYLNWYQQKPDGTVKVLIYYTSRLHSGVPSRFSGSGSGTDYSLTISNLEQEDIATYFCQQGNTLPYTFGGGTKLEIKR | % inhibition [21]: 0%; % inhibition [22]: -9%; % inhibition [23]: 7% |
| 1 | 83 | 97 | 64 | 8 | 8 | 55 | 18 | 26 | 33 | 88 | 33 | 99 | 91 | 7 | 31 | 10 | 46 | 67 | 12 | antibody 1260 (antibody, human IgG1, kappa, V domains shown, Chimeric IgG1 kappa) VH: QVQLKESGPGLVAPSQSLSITCTVSGFSLTTYGVHWVRQPPGKGLEWLGVIWAGGSTNYNSALMSRLSIKKDNSKSQVFLKMNSLQTDDTAMYYCARAYGYNFDYWGQGTTLTVSS VL: DIQMTQTTSSLSASLGDRVTISCSASQGITNYLNWYQQKPDGTVKLLIYYSSSLHSGVPSRFSGSGSGTDYSLTISNLEPEDIATYYCQQYSEIPYTFGGGTKLELKR | % inhibition [21]: 22%; % inhibition [22]: -10%; % inhibition [23]: 25% |
| -13 | 73 | 4 | 9 | -2 | -7 | 0 | -5 | -1 | 0 | 79 | -2 | -15 | 86 | -9 | -2 | -13 | 62 | 98 | -8 | antibody 1284 (antibody, human IgG1, kappa, V domains shown, Chimeric IgG1 kappa) VH: QVQLQQPGAELVKPGASVKLSCKASGYTFTSDWMHWMKQRPGQGLEWIGEINPSNGRSSYNEKFKSKATLTVDKSSSTAYMQLSSLTSEDSAVYYCARIGGIYVETYWGQGTLVTVSS VL: DIVLTQSPASLAVSLGQRATISCRASQSVSTSTYSYMHWYQQKSGQPPKLLIKYASNLESGVPARFSGSGSGTDFTLNIHPVEEEDTATYYCQHSWEIPWTFGGGTKLEIKR | % inhibition [21]: -3%; % inhibition [22]: 6%; % inhibition [23]: -3% |
